Measured values: the RNAGym collection of RNA variant scans (doi:10.7554/elife.80360)

B1: CPEB3 Ribozyme (parent)
chain: GGGGGCCACAGCAGAAGCGUUCACGUCGCGGCCCCUGUCAGAUUCUGGUGAAUCUGCGAAUUCUGCUGU

Variants of: B1
Experiment: self-cleavage, relative activity (ratio to wild type); higher = more cleavage; co-transcriptional

Row | Variant | self-cleavage
1 | A13G C57A | 0.448
2 | A13G G68C | 0.924
3 | A13G G68U | 0.95
4 | G14A G30C | 0.281
5 | G14A G30U | 0.21
6 | G14C G30U | 0.157
7 | G14C G30C | 0.142
8 | A13G U20A | 0.0779
9 | A13G U20C | 0.199
10 | A13G C22A | 0.106
11 | A13G C22U | 0.207
12 | A13C G30A | 0.497
13 | G14C C35A | 0.173
14 | A13U C22A | 0.161
15 | A13U C22G | 0.148
16 | A13U C22U | 0.171
17 | G14C G17U | 0.138
18 | G14C A23G | 0.365
19 | G14U C33G | 0.341
20 | A13G U49C | 1.01
21 | A13G U49G | 0.989
22 | G14U A52G | 0.851
23 | G14A A40U | 0.21
24 | G14U G58U | 0.893

Row | Variant | self-cleavage
25 | A15C A40U | 0.451
26 | G14U U67A | 0.733
27 | G14U C22G | 0.172
28 | G14C C34U | 0.653
29 | A13C U38A | 0.679
30 | A13C U38C | 0.668
31 | A13C U38G | 0.0833
32 | A13C U36G | 0.201
33 | A13C U36A | 0.175
34 | A13U A60C | 0.318
35 | A13G A42C | 0.647
36 | A13G A42G | 0.855
37 | A13G G19C | 0.13
38 | G14U U62A | 0.482
39 | A13C G19C | 0.107
40 | A13C G19A | 0.109
41 | G14A C33U | 0.747
42 | G14A C33G | 0.414
43 | A13C G41A | 0.27
44 | A13U C39U | 0.422
45 | G14U G28A | 0.213
46 | G14U G28C | 0.159
47 | G14C U38C | 0.284
48 | G14C U38A | 0.308

Row | Variant | self-cleavage
49 | G14U A40C | 0.17
50 | A13C U64C | 0.614
51 | G14C G48U | 0.805
52 | G14U A42G | 0.404
53 | G14C G56A | 0.31
54 | G14C U44C | 0.189
55 | A13U U67G | 0.827
56 | A13C C57G | 0.235
57 | A13C C57U | 0.248
58 | A13G G47C | 0.997
59 | G14A C54U | 0.755
60 | G14A C54G | 0.312
61 | A13U G56U | 0.348
62 | G14U A51U | 0.739
63 | G14A C63U | 0.98
64 | G14A C63G | 0.73
65 | G14A G19U | 0.091
66 | G14C C24G | 0.131
67 | G14C C24A | 0.136
68 | A13C G48A | 0.957
69 | A13C G48C | 0.917
70 | A13C G48U | 0.934
71 | G14C A59G | 0.62
72 | A13C U46A | 0.901

Row | Variant | self-cleavage
73 | A13C U46G | 0.885
74 | A13U A59U | 0.464
75 | A13U C57A | 0.194
76 | A15C A23C | 0.835
77 | A15C A23G | 0.659
78 | A15C A23U | 0.917
79 | G14C A51U | 0.489
80 | G14A A51G | 0.81
81 | A13G U67G | 0.897
82 | A13U C33U | 0.894
83 | A13C C34A | 0.511
84 | A13C C34U | 0.929
85 | G14U U49A | 0.858
86 | G14C G19C | 0.126
87 | G14C G19U | 0.156
88 | G14A U69G | 0.934
89 | G14A U69C | 1
90 | G14A U69A | 0.875
91 | A13C U61A | 0.459
92 | A13C U61G | 0.406
93 | A13C U20G | 0.089
94 | A13G U61A | 0.834
95 | G14A C29A | 0.23
96 | G14A C29G | 0.167

Row | Variant | self-cleavage
97 | G14U G68C | 0.779
98 | G14U G68A | 0.908
99 | A13U G58U | 0.911
100 | A13U G58C | 0.788
101 | G14A U20C | 0.181
102 | A15C C22G | 0.0813
103 | A15C C22A | 0.148
104 | A13C G50A | 0.913
105 | G14C U49C | 0.55
106 | G14U U21G | 0.147
107 | G14C G65U | 0.242
108 | G14U C32G | 0.237
109 | G14U U20C | 0.219
110 | G14C A15U | 0.179
111 | G14C A15G | 0.725
112 | A13G A52U | 0.989
113 | A13G G30U | 0.241
114 | G14C U69A | 0.769
115 | A13U C45U | 0.904
116 | G14A G37C | 0.114
117 | G14A G37U | 0.138
118 | A13C G31C | 0.131
119 | A13C U53G | 0.63
120 | A13C U53C | 0.352

Row | Variant | self-cleavage
121 | G14A G65A | 0.258
122 | A13G G41C | 0.547
123 | A13G G41U | 0.583
124 | G14A G47A | 0.826
125 | A13U C32U | 0.862
126 | A13G G17C | 0.052
127 | G14A C22U | 0.17
128 | G14A C22A | 0.178
129 | A13U C63U | 0.648
130 | A13G C66A | 0.295
131 | A13G C66U | 0.756
132 | G14C C54A | 0.264
133 | A13U C18A | 0.132
134 | G14U G56A | 0.539
135 | G14C G58C | 0.497
136 | G14C G58U | 0.817
137 | A13C C35A | 0.281
138 | G14A U26G | 0.401
139 | G14A U26C | 0.432
140 | A13U C66G | 0.413
141 | G14U C35A | 0.257
142 | G14A G28U | 0.112
143 | G14A G28A | 0.147
144 | A13C G25A | 0.129

Row | Variant | self-cleavage
145 | A13C G25U | 0.104
146 | A13U U53C | 0.357
147 | A13C U69A | 0.915
148 | A13C U69C | 1.06
149 | G14A C32U | 0.802
150 | A13C G47A | 0.922
151 | A13G A51G | 0.843
152 | A13G A51U | 0.905
153 | A13G U69A | 1
154 | A13U A40C | 0.163
155 | A13U A40U | 0.265
156 | G14A G31U | 0.207
157 | G14A A42G | 0.372
158 | G14A A42U | 0.329
159 | A13G C39A | 0.602
160 | A13C C33U | 0.774
161 | A13C C33G | 0.231
162 | A13G C45G | 0.847
163 | A13U G25C | 0.0789
164 | A13U G25U | 0.108
165 | A13U | 0.888
166 | A13G | 0.97
167 | G14U C66U | 0.436
